Experiment: yeast display, Sf9 membrane polyspecificity reagent, FACS + sequencing; frameworks hold sequencing errors
Method in brief: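 A synthetic nanobody library was expressed on Saccharomyces cerevisiae BJ5465 by galactose induction for 36–48 hours. The library was stained for 1 hour at 4 °C with 10% biotinylated, detergent-solubilized Sf9 membrane reagent and enriched with streptavidin microbeads before FACS. Low and high (top ~1%) gates were set on anti-HA fluorescence for expression and streptavidin fluorescence for reagent binding, and each polyreactivity label reflects the gate of origin.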
For “QVQLVESGGGLVQAGGSLRISCAASGRTFWKYAMGWYRQAPGKERELVAAITASGARTYYADSVKGRFTISRDNAKNTVYLQMNSLKPEDTAVYYCNAGSVSDRQMDYWGQGTQVTVSS”, the “polyreactivity (PSR sort gate)” value was “low polyreactivity”. With “QVQLVESGGGLVQAGGSLRISCAASGRTGKNAMVWYRQARGNERELVAASRYNGGSTYYADSVKGRFTISRDNANNTVYLQKNIMKPEYTAVYYCAAAFRRHNGSAFNYWGHGTQVTVSS” the “polyreactivity (PSR sort gate)” value was “high polyreactivity”. With “QVQLVESGGGLVQAGGSLRISCAASGRTLRYYAMGWYRQAPGKERELVAAITSSDRTYYADSVKGRFTISRDNAKNTVYLQMNSLKPEDTAVYYCAAYRATQFGYYYWGQGTQVTVSS” the “polyreactivity (PSR sort gate)” value was “high polyreactivity”. For “QVQLVESGGGLVQAGGSLRISCAASGSIFASKTMGWYRQAPGKERELVAGITKIGSSTYYADSVKGRFTISRDNAKNTVYLQMNSLKPEETAVYYCNAYLSPKQPLSPPEPTFEGGYWGQGTQVTVSS”, the “polyreactivity (PSR sort gate)” value was “low polyreactivity”. For “QVQLVESGGGLVQAGGSLRISCAASGSIFDLNAMGWYRQAPGKERELVAAISSGGRTTYADSVKGRFTISRDNAKNTVYLQMNSLKPEDTAFYYCNAVGDVFPRTGPIYDYWGQGSQVTVSS”, the “polyreactivity (PSR sort gate)” value was “high polyreactivity”. For “QVQLVESGGGLVQAGGSLRISCAASGSIFPFYAMGWYRQAPGKERELVAAISDRGGSTYYADSVKGRFTISRDNAKNTVYLQMNSLKPEDTAVYYCAKGGEVSQGYTDEYDYWGQGTQVTVSS”, the “polyreactivity (PSR sort gate)” value was “low polyreactivity”. With “QVQLVESGGGLVQAGGSLRISCAASGSIFPYNDMGWYRQAPGKERELVAVITSSGGSTYYADSVKGRFTISRDNAKNTVYLQMNSLKPEDTAVYYCAARGYNYYFGGYDYWGQGTQVTVSS” the “polyreactivity (PSR sort gate)” value was “low polyreactivity”. With “QVQLVESGGGLVQAGGSLRISCAASGSIFSFYAMGWYRQAPGKERELVAAISSGGSTYYADSVKGRFTISRDNAKNTVYLQMNSLKPEDTAVYYCAHGFAQYGLDLDPGDYDYWGQGTQVTVSS” the “polyreactivity (PSR sort gate)” value was “low polyreactivity”. In the case of “QVQLVESGGGLVQAGGSLRISCAASGSIFTSNVMGWYRQAPGKERELVAAITITGTTNYADSVKGRFTISRDNAKNTVYLQMNSLKPEDTAVYYCAKRYYRFYQGWPPEDYWGQGTQVTVSS”, the “polyreactivity (PSR sort gate)” value is reported as “low polyreactivity”. For “QVQLVESGGGLVQAGGSLRISCAASGSIFVEYDMGWYRQAPGKERELVADISGTGNTYYADSVKGRFTISRDNAKNTVYLQMNSLKPEDTAVYYCAAGTYYQNYWSPFVWYDYWGQGTQVTVSS”, the “polyreactivity (PSR sort gate)” value was “high polyreactivity”. For “QVQLVESGGGLVQAGGSLRISCAASGSIFYNYAMGWYRQAPGKERELVAAINRSGGITFYADSVKGRFTISRDNAKNTVYLQMNSLKPEDTAVYYCAADRSFGHHYWYTGKRYDYWGQGTQVTVSS”, the “polyreactivity (PSR sort gate)” value was “low polyreactivity”. With “QVQLVESGGGLVQAGGSLRISCAASGSILDGNAMGLYRQAPGKERELFAGISESDGSTNYADSVKGRFTISRDNAKNTVYLQMNSLNPEDTAVYYCAADIWTCGDIPYDYWGQGTQVTVSS” the “polyreactivity (PSR sort gate)” value was “low polyreactivity”. For “QVQLVESGGGLVQAGGSLRISCAASGSNLSPYVMGWYRQAPGKERELVSTISRSGGRTYYADSEKGRFTISRDNAKNTFNLQMNSLKPEDTAVYYCAREDWGSYSDMDSWGQGTQVTVSS”, the “polyreactivity (PSR sort gate)” value was “low polyreactivity”. In the case of “QVQLVESGGGLVQAGGSLRISCAASGSTFDGYAMGWYRQAPGKERELVAAITRGGSTNYADSVKGRFTISRDNAKNTVYLQMNSLKPEDTAVYYCNARLWKRYPYDGYGYWGQGTQVTVSS”, the “polyreactivity (PSR sort gate)” value is reported as “high polyreactivity”. In the case of “QVQLVESGGGLVQAGGSLRISCAASGSTFDYDDMRWYRQAPGKERELVASITSGGITDYADSVKGRFTISRDNAKNTVYLQMNSLTPEDTAVYYCNAARQYSRSAEGYLVWGYSWGQGTQVTVSS”, the “polyreactivity (PSR sort gate)” value is reported as “low polyreactivity”. With “QVQLVESGGGLVQAGGSLRISCAASGSTFEDNAMGWYRQAPGKERELVAAITSGGNTYYADSVKGRFTISRDNSKNTVYLQMNSLKPEDTAVYYCNAVPFYYDFDYWGQGTQVTVSS” the “polyreactivity (PSR sort gate)” value was “low polyreactivity”. In the case of “QVQLVESGGGLVQAGGSLRISCAASGSTFGPYAMGWYRQAPGKERELVAAIRWSDGSTYYADSVKGRFTISRDNANNTVYLQMNTLKPEDTAVSYCAVDGYGYNDDYWGQGTQVTVSS”, the “polyreactivity (PSR sort gate)” value is reported as “high polyreactivity”. With “QVQLVESGGGLVQAGGSLRISCAASGSTFNINAMGWYRQAPGKERELVAAIRYRGGSTNYADSVKGRFTISRDNAKNNVYLQMNSLKPEDTAVYYCAATYSRHTNGYSKYCYWGQGTQVTVSS” the “polyreactivity (PSR sort gate)” value was “high polyreactivity”. For “QVQLVESGGGLVQAGGSLRISCAASGSTFPYNAMGWYRQAPGKERELVATIDRGSTTNYADSVKGRFTISRDNAKNTVYLQMNSLKPEDTAVYYCAADANGYYNYDYWGQGTQVTVSS”, the “polyreactivity (PSR sort gate)” value was “low polyreactivity”. With “QVQLVESGGGLVQAGGSLRISCAASGSTFQGYAMGWYREAPGKERELVAAISGRSGSTYYADSVKGRFTISRDNAKNTVFLTMNSLKPVDSAVYYCNARFNRSRRTYDYWVQGTQVTVSS” the “polyreactivity (PSR sort gate)” value was “high polyreactivity”. For “QVQLVESGGGLVQAGGSLRISCAASGSTFQLYSMGWSRQAPGKEREFVAAITYSGGGSTSYADSVKGRFTISRDNAKNTVYLQMNSLKPEDTAVFYCAARDFETDGYTLVAYNYWGQGSQVTVSS”, the “polyreactivity (PSR sort gate)” value was “low polyreactivity”. In the case of “QVQLVESGGGLVQAGGSLRISCAASGSTFVRNAMGWYRQAHGKERELVAAISVDGSSTYDADSVKGRFTISRDNAKNTVYLQMNSLKREDTAVYYCNADWEYRDFYDITYDYWGQGTQVTVSS”, the “polyreactivity (PSR sort gate)” value is reported as “low polyreactivity”. In the case of “QVQLVESGGGLVQAGGSLRISCAASGSTFWYYAMGRYREAPGKERELVAAIRRGGSTYYADSVKGRFTISRDNAKNTVYLQLNSLKPDDTAGYYCAAERPYKTFGYGDWGQGTQVTVSS”, the “polyreactivity (PSR sort gate)” value is reported as “high polyreactivity”. For “QVQLVESGGGLVQAGGSLRISCAASGSTFYIYAMGWYRPAPGKERELVAAIRRSGGSTYYADSVKGRFTISRDNAKNTVYLQMNSLKPEDTAVYYCATRYLWRPRPYDYWGQGTQVTVSS”, the “polyreactivity (PSR sort gate)” value was “high polyreactivity”. For “QVQLVESGGGLVQAGGSLRISCAASGSTLRRYAMGWYRQAPGKERELVAAISGSGDSTYYADSVKGRFTISRDNAKNTVYLQMNSLKPEDTAVYYCNAVYAFNGYDYWGQGTQVTVSS”, the “polyreactivity (PSR sort gate)” value was “low polyreactivity”. With “QVQLVESGGGLVQAGGSLRISCAASGSTVHYMAWYRQAPGKEREMVAGISWSGGSTYYADSVKGRFTISRDNAKNTVYLQMNSLKPEETAVYYCAADHFNYTSGRDYWGQGTQVTVSS” the “polyreactivity (PSR sort gate)” value was “low polyreactivity”. With “QVQLVESGGGLVQAGGSLRISCAASGYIFRFNAMGCYRPAPGKERELVAVITSGARTYYADSVKGRFTISRDNAKNTVYLQMNSLKPEDNAVYYCNAGARRYLYDYWGQGTQVTVSS” the “polyreactivity (PSR sort gate)” value was “low polyreactivity”. With “QVQLVESGGGLVQAGGSLRISCAASGYTFKNNTMGWYRQAPGKERELVAAISVSGGSTYYADSVKGRFTISRDNAKKTVYLQMNSLKPEDTAVYYCTALREVPLFLVYIGGCYWGQGTQVTVSS” the “polyreactivity (PSR sort gate)” value was “low polyreactivity”. In the case of “QVQLVESGGGLVQAGGSLRISCAASGYTFYSNAMGWYRQAPGKERELVASIRSRGRSTYYADSVKGRFTISRDNAKYSVYLQMNSLNPEDTAVYYCAALRNKPAVYAYDYWGQGTQVTVSS”, the “polyreactivity (PSR sort gate)” value is reported as “low polyreactivity”. For “QVQLVESGGGLVQAGGSLRISCAPSGGILYHYVMGWYRQAPGTERELVAAISRAGRTYYADSVKGRFTISRDNAKNTVYLQMNSLKPEDTAVYYCNAYFRYFYWGLGTQVTVSS”, the “polyreactivity (PSR sort gate)” value was “high polyreactivity”.
